Laboratory results as given in US20240287139.
Positions count from the first letter of the chain named.

B1: MtbGyrase with MtbGyrAP353L (protein)
chain 1: TDTTLPPDDSLDRIEPVDIEQEMQRSYIDYAMSVIVGRALPEVRDGLKPVHRRVLYAMFDSGFRPDRSHAKSARSVAETMGNYHPHGDASIYDSLVRMAQPWSLRYPLVDGQGNFGSPGNDPPAAMRYTEARLTPLAMEMLREIDEETVDFIPNYDGRVQEPTVLPSRFPNLLANGSGGIAVGMATNIPPHNLRELADAVFWALENHDADEEETLAAVMGRVKGPDFPTAGLIVGSQGTADAYKTGRGSIRMRGVVEVEEDSRGRTSLVITELPYQVNHDNFITSIAEQVRDGKLAGISNIEDQSSDRVGLRIVIEIKRDAVAKVVINNLYKHTQLQTSFGANMLAIVDGVLRTLRLDQLIRYYVDHQLDVIVRRTTYRLRKANERAHILRGLVKALDALDEVIALIRASETVDIARAGLIELLDIDEIQAQAILDMQLRRLAALERQRIIDDLAKIEAEIADLEDILAKPERQRGIVRDELAEIVDRHGDDRRTRIIAADGDVSDEDLIAREDVVVTITETGYAKRTKTDLYRSQKRGGKGVQGAGLKQDDIVAHFFVCSTHDLILFFTTQGRVYRAKAYDLPEASRTARGQHVANLLAFQPEERIAQVIQIRGYTDAPYLVLATRNGLVKKSKLTDFDSNRSGGIVAVNLRDNDELVGAVLCSAGDDLLLVSANGQSIRFSATDEALRPMGRATSGVQGMRFNIDDRLLSLNVVREGTYLLVATSGGYAKRTAIEEYPVQGRGGKGVLTVMYDRRRGRLVGALIVDDDSELYAVTSGGGVIRTAARQVRKAGRQTKGVRLMNLGEGDTLLAIARNAEESGDDNAVDANGADQTGN
chain 2: MAAQKKKAQDEYGAASITILEGLEAVRKRPGMYIGSTGERGLHHLIWEVVDNAVDEAMAGYATTVNVVLLEDGGVEVADDGRGIPVATHASGIPTVDVVMTQLHAGGKFDSDAYAISGGLHGVGVSVVNALSTRLEVEIKRDGYEWSQVYEKSEPLGLKQGAPTKKTGSTVRFWADPAVFETTEYDFETVARRLQEMAFLNKGLTINLTDERVTQDEVVDEVVSDVAEAPKSASERAAESTAPHKVKSRTFHYPGGLVDFVKHINRTKNAIHSSIVDFSGKGTGHEVEIAMQWNAGYSESVHTFANTINTHEGGTHEEGFRSALTSVVNKYAKDRKLLKDKDPNLTGDDIREGLAAVISVKVSEPQFEGQTKTKLGNTEVKSFVQKVCNEQLTHWFEANPTDAKVVVNKAVSSAQARIAARKARELVRRKSATDIGGLPGKLADCRSTDPRKSELYVVEGDSAGGSAKSGRDSMFQAILPLRGKIINVEKARIDRVLKNTEVQAIITALGTGIHDEFDIGKLRYHKIVLMADADVDGQHISTLLLTLLFRFMRPLIENGHVFLAQPPLYKLKWQRSDPEFAYSDRERDGLLEAGLKAGKKINKEDGIQRYKGLGEMDAKELWETTMDPSVRVLRQVTLDDAAAADELFSILMGEDVDARRSFITRNAKDVRFLDV
B2: MtbGyrase with MtbGyrAA32V (protein)
chain 1: B1 chain 1 with A31V, L352P
chain 2: B1 chain 2
B3: MtbGyrase with MtbGyrAM33A (protein)
chain 1: B1 chain 1 with M32A, L352P
chain 2: B1 chain 2
B4: MtbGyrase with MtbGyrAI36F (protein)
chain 1: B1 chain 1 with I35F, L352P
chain 2: B1 chain 2

The proteins below were run against the compound of Formula IV.
In the case of B1, the “compound-induced DNA cleavage compared to wildtype MtbGyrase” value is reported as “reduced cleavage (5 to 100-fold)”.
For B2, the “compound-induced DNA cleavage compared to wildtype MtbGyrase” value was “reduced cleavage (5 to 100-fold)”.
With B3 the “compound-induced DNA cleavage compared to wildtype MtbGyrase” value was “reduced cleavage (5 to 100-fold)”.
B4 was tested, and the “compound-induced DNA cleavage compared to wildtype MtbGyrase” value was “reduced cleavage (5 to 100-fold)”.
